Assay results: patent US20210115149A1 (ABVISION, published 2021)

Target: human CD40 protein (human, UniProt P25942 21-193, limits assumed)
Assay: ELISA screening of hybridoma wells against human CD40 protein
Description: Antibodies were created by electrofusion of human CD40-immunized mouse splenocytes (Balb/c strain) with SP2/0-A14 cells (ATCC) (Immunization procedure; dose, adjuvants, time course). Fused cells were seeded into 96-well plates and ELISA screening was conducted to identify wells that contain antibodies which interact with the human CD40 protein. Positive wells were further expanded and followed a limited dilution to isolate monoclonal hybridomas. Purified antibodies were used to test their ability to trigger CD40 signaling by an in-house created reporter system. Basically, an engineered 293T cell line was transduced to stably express the human CD40 protein. When testing the agonistic functions of CD40 antibodies, DNA plasmids of an NF-kB-driven luciferase reporter and Fc-gamma receptors were transiently transfected into established CD40-293T cells. Antibodies to be tested were added to the culture and incubated for 24 hours. Treated cells were harvested, lysed and analyzed on a plate reader for the activity of luciferase. Anti-human CD40 mAb clone #1E10-H2 and clone #2G9-B11 were tested binding to and activating human CD40. The sequences of the IgG heavy chain and light chain variable domains of anti-human CD40 agonistic mAb clone #1E10-H2 are shown in FIG. 1.

Chain of human CD40 protein (P25942 21-193 limits assumed): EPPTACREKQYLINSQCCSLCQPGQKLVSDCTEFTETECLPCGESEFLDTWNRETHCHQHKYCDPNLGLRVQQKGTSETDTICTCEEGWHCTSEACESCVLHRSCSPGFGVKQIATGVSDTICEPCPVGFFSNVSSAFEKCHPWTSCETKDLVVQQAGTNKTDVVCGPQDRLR

| Binder | binding result |
| --- | --- |
| Anti-human CD40 mAb clone #1E10-H2 (antibody, V domains shown, Mouse hybridoma monoclonal antibody (Balb/c), purified; also called anti-human CD40 agonistic mAb (clone #1E10-H2)) VH: QVQLQQSGAELMKPGASVKISCKATGYTFSSYWIEWIKQRPGHVLEWIGEILPGSGSANYNERFKGKATFTADTSSNTAYMQLTSLTSEDSAVYYCARLRYYGSSPWFAYWGQGTLVTVSA VL: not shown | binds |
| Anti-human CD40 mAb clone #2G9-B11 (antibody, mouse IgG1, V domains shown, Mouse hybridoma monoclonal antibody (Balb/c), purified; also called anti-CD40 2G9-B11) VH: EVQLVESGGGLVKPGGSLKLSCAASGFSFSSYAMSWVRQTPEKRLEWVATISSGGDYTYYPDSVKGRFTISRDNAKNTLYLQMTSLRSEDTAMYYCARRNHFTYWGQGTLVTVSA VL: DIVMTQSHKFMSTSVGDRVSITCKASQDVVTSVAWYQQKPGQSPKLLIYWTSTRHTGVPDRFTGSGSGTDFTLTISNVQSEDLADYFCQQYSSYPLTFGAGTKLELK | binds |
